Patent US20250163146A1, “SINGLE-DOMAIN ANTIBODIES (NANOBODIES) TARGETING THE NOTCH LIGAND DLL4 AND METHODS OF THEIR USE” (H. LEE MOFFITT CANCER CENTER AND RESEARCH INSTITUTE, INC., priority 2022, published 2025)

Tests used:
DLL4 [1] = molecular target: T1, DLL4 (Homo sapiens, UniProt Q9NR61); assay: Cross-reactivity: yeast expressing each nanobody stained with biotinylated human DLL4 (N-EGF3), flow cytometry; format: binding; parameters: stained with biotinylated human DLL4 (N-EGF3); biotin (protein is biotinylated); conditions: yeast display, SA-647, FIG. 2
Procedure: 163. The eight anti-DLL4 nanobody clones were then tested for cross-reactivity between human and mouse DLL4. Yeast cells expressing each nanobody were stained with biotinylated human DLL4 (N-EGF3), washed, stained with SA-647, and then analyzed by flow cytometry.
Target sequence in this assay (Q9NR61 27-322 limits assumed): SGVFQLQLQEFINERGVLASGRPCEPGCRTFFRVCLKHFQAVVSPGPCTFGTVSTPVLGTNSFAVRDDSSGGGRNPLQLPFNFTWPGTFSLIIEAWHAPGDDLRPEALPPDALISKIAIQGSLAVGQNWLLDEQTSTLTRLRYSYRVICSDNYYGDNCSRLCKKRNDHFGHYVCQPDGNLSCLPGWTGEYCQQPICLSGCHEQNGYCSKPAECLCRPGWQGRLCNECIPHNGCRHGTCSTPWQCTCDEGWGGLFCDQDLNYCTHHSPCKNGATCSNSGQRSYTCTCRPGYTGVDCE

mouse DLL4 = molecular target: T2, mouse DLL4 (Mus musculus, UniProt Q9JI71); assay: Yeast-displayed nanobody clones stained with biotinylated mDLL4 and SA-647, flow cytometry; format: binding; conditions: yeast display, biotinylated mDLL4 (N-EGF3), SA-647, FIG. 1
T2 construct: The mDLL4 protein was a truncation that contained the C2, DSL, and EGF1-3 domains (DLL4 (N-EGF3)); biotin (protein is biotinylated)
T2 sequence (Q9JI71 27-323 limits assumed): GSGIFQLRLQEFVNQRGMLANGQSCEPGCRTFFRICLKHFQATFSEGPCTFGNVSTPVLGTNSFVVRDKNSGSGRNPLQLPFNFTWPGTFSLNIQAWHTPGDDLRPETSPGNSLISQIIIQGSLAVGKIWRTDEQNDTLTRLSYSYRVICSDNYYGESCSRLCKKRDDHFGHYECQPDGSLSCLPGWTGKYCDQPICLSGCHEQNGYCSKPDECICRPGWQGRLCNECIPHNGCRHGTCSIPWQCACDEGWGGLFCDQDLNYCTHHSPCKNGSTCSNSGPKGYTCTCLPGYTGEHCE
Procedure: 162. To isolate binding molecules that interrupted the interaction of DLL4 and Notch1, we performed several rounds of selection using decreasing concentrations of biotinylated murine DLL4 protein. The mDLL4 protein was a truncation that contained the C2, DSL, and EGF1-3 domains (DLL4 (N-EGF3)). To perform a selection, the library was stained with biotinylated mDLL4, washed, incubated with streptavidin-647, washed, and then binders isolated selected using either (a) magnetic beads coated with an anti-647 antibody or (b) FACS. The mDLL4-binding yeast were then plated so that individual colonies could be picked and cultured to isolate individual clones. The clones were then each stained with mDLL4 and SA-647 and analyzed by flow cytometry to confirm that they bound to mDLL4. (FIG. 1).

hNotch1 = assay: Inhibition in plate-bound and co-culture formats with CHO-hNotch1 reporter cell line; format: cell-based, human; conditions: preliminary
Excerpt: (§1) 168. We the investigated the C4 nanobody following affinity maturation and found a second nanobody Nb.d4C4v2. To identify the similarity between the parent C4 and the variant C4v2 clone the sequences of each nanobody was compared (FIG. 7). We also investigated the affinity of the C4 nanobody. […] Moreover, inhibition in plate-bound and co-culture formats in the presence of CHO-hNotch1 reporter cell line and with or without cells expressing DLL4 indicate a low-nanomolar IC50 similar to DAPT, indicating affinity-matured Nb.d4C4v2 is a clinical candidate (FIGS. 9 and 10).

[2] = tested on: DLL4-mediated Notch activation (hNotch1); assay: Plate-bound ligand stimulation assay, Notch1 H2B-citrine reporter cells on recombinant human DLL4; format: cell-based; conditions: nanobody-Fc fusions, plates coated with human DLL4 (C2, DSL, EGF1-5), FIG. 6
Excerpt: 167. To determine if the C4 and C5 nanobodies inhibit DLL4-mediated Notch activation. Notch1 reporter H2B-citrine reporter cells were transferred to 96-well plates coated with recombinant human DLL4 protein containing the C2, DSL, and EGF1-5 domains in the presence or absence of nanobody-Fc fusions.

DLL4 [3] = molecular target: T1, DLL4; assay: SPR monomer affinity; format: binding; conditions: preliminary, FIG. 8
Excerpt: as §1
Target sequence in this assay (Q9NR61 27-685, species assumed): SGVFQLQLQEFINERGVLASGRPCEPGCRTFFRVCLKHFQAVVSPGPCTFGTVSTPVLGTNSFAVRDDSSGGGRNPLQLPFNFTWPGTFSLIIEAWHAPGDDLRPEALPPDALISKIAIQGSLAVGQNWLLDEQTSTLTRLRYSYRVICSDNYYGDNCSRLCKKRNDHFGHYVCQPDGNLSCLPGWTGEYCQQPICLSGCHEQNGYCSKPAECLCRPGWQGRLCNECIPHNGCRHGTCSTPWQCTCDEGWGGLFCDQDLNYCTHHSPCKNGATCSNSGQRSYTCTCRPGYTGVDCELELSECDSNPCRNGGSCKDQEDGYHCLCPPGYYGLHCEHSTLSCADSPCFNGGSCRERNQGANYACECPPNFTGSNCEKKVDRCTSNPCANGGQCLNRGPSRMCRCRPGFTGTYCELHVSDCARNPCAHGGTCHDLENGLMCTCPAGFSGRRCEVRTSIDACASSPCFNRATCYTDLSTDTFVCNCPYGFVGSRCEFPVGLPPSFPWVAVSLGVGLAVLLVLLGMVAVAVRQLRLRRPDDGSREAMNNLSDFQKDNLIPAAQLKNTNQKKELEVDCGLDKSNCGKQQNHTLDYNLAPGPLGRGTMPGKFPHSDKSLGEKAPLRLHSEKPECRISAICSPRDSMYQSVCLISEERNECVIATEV

hDLL4: hNotch1 complexes = hDLL4: hNotch1 complexes (Homo sapiens, UniProt Q9NR61); assay: Yeast expressing nanobody stained with unlabeled hDLL4 + biotinylated hNotch1 (6-13), flow cytometry (inhibition of hNotch1 binding to hDLL4); conditions: FIG. 3
Sequence of hDLL4: hNotch1 complexes (Q9NR61 27-322 limits assumed, one chain of several): as the sequence (Q9NR61 27-322 limits assumed) above
Procedure: (§2) 164. Next, we tested four cross-reactive nanobodies (A7, C4, C5, and B1) for their ability to inhibit binding of hNotch1 to hDLL4 (FIG. 3). Yeast expressing each nanobody were stained with either biotinylated hDLL4 (N-3) or unlabled hDLL4+biotinylated hNotch1 EGF domains 6-13 (hNotch1 (6-13)). The yeast were then washed, incubated with SA-647, and analyzed by flow cytometry.

DLL4 [4] = molecular target: T1, DLL4; assay: Yeast expressing nanobody stained with biotinylated hDLL4 (N-3) alone, flow cytometry; format: binding; parameters: stained with biotinylated human DLL4 (N-EGF3); conditions: yeast display, FIG. 3
Procedure: as §2
Target sequence in this assay (Q9NR61 27-322 limits assumed): as above

cross-reactivity with human DLL4 (DLL4 [1]) | binding to mouse DLL4 (mouse DLL4) | Molecule | further results
cross reacted with human DLL4 | bound mouse DLL4 | clone B1: anti-DLL4 nanobody isolated from the yeast library, SEQ ID NO: 12 (protein) VHH: QVQLQESGGGLVQAGGSLRLSCAASGTIFYSSDMGWYRQAPGKEREFVAGINRGSTTYYADSVKGRFTISRDNAKNTVYLQMNSLKPEDTAVYYCAVVSDVLTRLFYWGQGTQVTVSSGSYPYDVPDYAQTSSPSTEAS | –
– | bound mouse DLL4 | clone A8: anti-DLL4 nanobody isolated from the yeast library, SEQ ID NO: 4 (protein) VHH: QVQLQESGGGLVQAGGSLRLSCAASGTIFEERVMGWYRQAPGKEREFVAGIASGAITYYADSVKGRFTISRDNAKNTVYLQMNSLKPEDTAVYYCAAQGYSFKTKPDYSAYVLVYWGQGTQVTVSSGSYPYDVPDYAQTSSPSTEAS | –
– | – | Nb.d4C4v2: affinity-matured variant of the C4 nanobody, SEQ ID NO: 39 (SEQ ID NO: 41 with flanking sequence) (protein) VHH: QVQLQESGGGLVQAGGSLRLSCAASGSISGDVEMGWYRQAPGKEREFVAGINDGGNIYYADNVEGRFTISRDNAKNTVYLQMNSLKPEDTAVYYCAVSTTYPSYNESQYADWIAYWGQGAQVTVSS | IC50 (hNotch1; CHO-hNotch1 reporter cell line and cells expressing DLL4, similar to DAPT, FIG. 10): low-nanomolar; IC50 (hNotch1; CHO-hNotch1 reporter cell line, without cells expressing DLL4, similar to DAPT, FIG. 9): low-nanomolar
– | bound mouse DLL4 | clone A9: anti-DLL4 nanobody isolated from the yeast library, SEQ ID NO: 8 (protein) VHH: QVQLQESGGGLVQAGGSLRLSCAASGTISQDSGMGWYRQAPGKEREFVAGITAGSITYYADSVKGRFTISRDNAKNTVYLQMNSLKPEDTAVYYCAASYVSVQAHTYWGQGTQVTVSSGSYPYDVPDYAQTSSPSTEAS | –
cross reacted with human DLL4 | – | clone C4: anti-DLL4 nanobody isolated from the yeast library, SEQ ID NO: 32; nanobody d4C4 SEQ ID NO: 36 (protein) VHH: QVQLQESGGGLVQAGGSLRLSCAASGSISGDVEMGWYRQAPGKEREFVAGINDGGNTYYADSVKGRFTISRDNAKNTVYLQMNSLKPEDTAVYYCAVSTTYPSYNESQYADWLAYWGQGTQVTVSSGSYPYDVPDYAQTSSPSTEAS | reduction in reporter activity (hNotch1 activation) [2]: dose-dependent reduction in reporter activity; monomer affinity (DLL4 [3]): low nanomolar to picomolar range; binding to hDLL4: hNotch1 complexes (hDLL4: hNotch1 complexes): not to hDLL4: hNotch1 complexes; binding to hDLL4 alone (DLL4 [4]): bound robustly
– | bound mouse DLL4 | clone B4: anti-DLL4 nanobody isolated from the yeast library, SEQ ID NO: 16 (protein) VHH: QVQLQESGGGLVQAGGSLRLSCAASGNISVWIPMGWYRQAPGKEREFVASIGEGSTTYYADSVKGRFTISRDNAKNTVYLQMNSLKPEDTAVYYCAVPYYGHSDYDYWGQGTQVTVSSGSYPYDVPDYAQTSSPSTEAS | –
cross reacted with human DLL4 | bound mouse DLL4 | clone A7: anti-DLL4 nanobody isolated from the yeast library, SEQ ID NO: 24 (protein) VHH: QVQLQESGGGLVQAGGSLRLSCAASGNIFYTYSMGWYRQAPGKEREFVAAISAGTITYYADSVKGRFTISRDNAKNTVYLQMNSLKPEDTAVYYCAVFAPRDVIHYYWGQGTQVTVSSGSYPYDVPDYAQTSSPSTEAS | –
cross reacted with human DLL4 | bound mouse DLL4 | clone C5: anti-DLL4 nanobody isolated from the yeast library, SEQ ID NO: 20 (protein) VHH: QVQLQESGGGLVQAGGSLRLSCAASGNISTGTAMGWYRQAPGKEREFVAGIAYGATTYYADSVKGRFTISRDNAKNTVYLQMNSLKPEDTAVYYCAVEVSQSTPGGRYSVAYLIYWGQGTQVTVSSGSYPYDVPDYAQTSSPSTEAS | reduction in reporter activity (hNotch1 activation) [2]: dose-dependent reduction in reporter activity; binding to hDLL4: hNotch1 complexes (hDLL4: hNotch1 complexes): not to hDLL4: hNotch1 complexes; binding to hDLL4 alone (DLL4 [4]): bound robustly
– | bound mouse DLL4 | clone C2: anti-DLL4 nanobody isolated from the yeast library, SEQ ID NO: 28 (protein) VHH: QVQLQESGGGLVQAGGSLRLSCAASGSISVVYGMGWYRQAPGKEREFVAGISYGGSTYYADSVKGRFTISRDNAKNTVYLQMNSLKPEDTAVYYCAVDASYWDTLVYWGQGTQVTVSSGSYPYDVPDYAQTSSPSTEAS | –
